For one data set, the system named is S. aureus. Briefly: Antimicrobial activity in the presence of calf vitreous humor in vitro. Type of data set: cell-based, Staphylococcus aureus. Particulars: calf VH, 10^5 CFU, 2, 4 and 6 h. The source says: FIGS. 4 A, B and C depict the effect of chimeric Ply187AN-KSH3b on bacterial growth in vivo and in the vitreous humor (VH) in vitro and with increasing inoculums in vitro respectively. […] Twenty-four hours after the treatment, the eyes were enucleated, homogenized and the bacterial burden was estimated via serial dilution plating. FIG. 4B depicts a test showing the effect of the vitreous humor on Ply187AN-KSH3b antimicrobial activity where Ply187AN-KSH3b was mixed with calf vitreous humor and inoculated with 10^5 CFU of S. aureus. The survival of the bacteria was enumerated by CFU count at 2, 4 and 6 h of incubation. Statistical analysis was performed using unpaired student's t test (*, p<0.05; **, p<0.005; ***, p<0.0005). […] An increasing number of dilutions (1:10,000 to 1:10) of logarithmic phase of S. aureus (RN6390 strain) were treated with Ply187AN-KSH3b for 1 h followed by CFU enumeration on TSA plates. Statistical analysis was performed using unpaired student's t test (*, p<0.05; **, p<0.005; ***, p<0.0005).
To determine the effect of Vitreous Humor (VH) on antimicrobial activity of chimeric Ply187AN-KSH3b in vitro, bacteria (10^5 CFU) were incubated with chimeric Ply187AN-KSH3b in the presence of calf VH. Following incubation at 37° C. for the desired time, bacterial growth in VH was enumerated by serial dilution plating. […]

A further data set has as its system staphylococci. Particulars: Mao et al.; cited from earlier work.
Data set [1] concerns S. aureus strains/isolates RN6390, USA 300, R2932, R2952 and R3000. Briefly: Turbidity reduction assay. The following applies: at MIC, measured every 5 min up to 1 h. Type of data set: cell-based, Staphylococcus aureus. Here is the method: (§1) Error bars represent SEM for three independent experiments performed in triplicates. […] Cells surviving at half (½) of the MIC value were used as an inoculum for each subsequent round of exposure. The change in susceptibility is recorded and presented as fold change resistance from day 1 to 10 of exposure and also after 5 days of growth (without any selection pressure) following the 10th day (represented as 10+5). The data represent means±SEM of two independent experiments performed in triplicate.
To verify and quantify the lytic activity against live S. aureus, we have tested Ply187AN-KSH3b in the Turbidity Reduction Assay. The turbidity assay measures the drop in optical density (OD) resulting from lysis of the target bacteria with the phage endolysin-derived protein. Turbidity reduction assays by chimeric Ply187AN-KSH3b were performed in a 96 well plate as described previously by Becker et al. (2009a, 2009b, supra). Briefly, S. aureus strains/isolates RN6390, USA 300, and clinical isolates R2932, R2952 and R3000 were grown to logarithmic phase (OD600 0.4-0.6) at 37° C. in tryptic Soy broth (TSB). The culture was harvested by centrifugation and the pellet was resuspended in assay buffer (400 mM NaCl, 20 mM Tris HCl, 1% glycerol, pH 7.5). […] The reduction in the turbidity was measured after every 5 min up to 1 h using a micro plate reader. […]

The test system of data set [2] is S. aureus R 3000 (HA-MRSA). In words: MIC against S. aureus strains (Table 1). Particulars: mean of three experiments ± SEM. It is filed as cell-based, Staphylococcus aureus. The protocol:
(§2) For in vivo studies, an antibiotic sensitive S. aureus (SA) strain RN6390 was used to induce endophthalmitis; whereas, the in vitro studies were performed using antibiotic-resistant strains (Table 1), including USA300, a community-associated methicillin resistant S. aureus (CA-MRSA), and three clinical isolates R2932 (CA-MRSA), R2952 and R3000 (both being hospital-associated MRSA, […]), […]) kindly provided by Dr. Michael J. Rybak (Department of Pharmaceutical Sciences, Wayne State University, Detroit, Mich.). All bacteria were routinely cultured in TSB broth (Tryptic Soy broth, Sigma, St Louis, Mo.) or on TSB agar plates.
(§3) To verify and quantify the lytic activity against live S. aureus, we have tested Ply187AN-KSH3b in the Turbidity Reduction Assay. The turbidity assay measures the drop in optical density (OD) resulting from lysis of the target bacteria with the phage endolysin-derived protein. Turbidity reduction assays by chimeric Ply187AN-KSH3b were performed in a 96 well plate as described previously by Becker et al. (2009a, 2009b, supra). Briefly, S. aureus strains/isolates RN6390, USA 300, and clinical isolates R2932, R2952 and R3000 were grown to logarithmic phase (OD600 0.4-0.6) at 37° C. in tryptic Soy broth (TSB). The culture was harvested by centrifugation and the pellet was resuspended in assay buffer (400 mM NaCl, 20 mM Tris HCl, 1% glycerol, pH 7.5). Bacterial cultures (100 μl/well) were mixed with 100 μl of (as per MIC) of chimeric Ply187AN-KSH3b protein diluted in the same assay buffer. The reduction in the turbidity was measured after every 5 min up to 1 h using a micro plate reader. EB diluted in the same assay buffer (without chimeric Ply187AN-KSH3b protein) was used as a control (EB C). Resistance development against chimeric Ply187AN-KSH3b was tested using repeated exposure in an MIC assay as described by Rodriguez-Rubio and co-workers (Rodriguez-Rubio et al., PLoS One 8:e64671.). In brief, bacterial cultures (10^5 CFU/well) were exposed overnight to a 2-fold serial dilution of chimeric Ply187AN-KSH3b, lysostaphin, and gentamicin, where the latter serve as controls. In every round, 100 μl culture from the wells with growth (½ MIC value) were inoculated into fresh TSB and grown up to logarithmic phase. These cultures were used for the next round of MIC exposure. Bacteria surviving after 10 rounds were grown for an additional 5 rounds in TSB without any selection pressure to allow phenotype-reversion, then MIC were performed to measure the sensitivity to the chimeric Ply187AN-KSH3b after non-selective growth.

Data set [3] deals with S. aureus R 2932 (CA-MRSA). Briefly: MIC against S. aureus strains (Table 1). It is filed as cell-based, Staphylococcus aureus. The following applies: mean of three experiments ± SEM. Here is the method: as §2, §3
The test system of a further data set is S. aureus RN6390 (MSSA). In words: MIC against S. aureus strains (Table 1). It is filed as cell-based, Staphylococcus aureus. Particulars: mean of three experiments ± SEM. Here is the method: as §2, §3
The test system of data set [4] is S. aureus R 2952 (HA-MRSA). Briefly: MIC against S. aureus strains (Table 1). Type of data set: cell-based, Staphylococcus aureus. The following applies: mean of three experiments ± SEM. The protocol:
as §2, §3

The test system of data set [5] is S. aureus USA 300 (CA-MRSA). Briefly: MIC against S. aureus strains (Table 1). The following applies: mean of three experiments ± SEM. Type of data set: cell-based, Staphylococcus aureus. Here is the method:
as §2, §3

The conditions of data set [6]: intravitreal injection alone.
In a further data set the test system is S. aureus strain RN6390. Briefly: Resistance development assay by repeated exposure in an MIC assay. Type of data set: cell-based, Staphylococcus aureus. Particulars: RN6390, up to 10 rounds of exposure. The protocol:
as §1
as §3, with “In every round, 100 μl culture from the wells with growth (½ MIC value) were inoculated into fresh TSB and grown up to logarithmic phase. These cultures were used for the next round of MIC exposure. Bacteria surviving after 10 rounds were grown for an additional 5 rounds in TSB without any selection pressure to allow phenotype-reversion, then MIC were performed to measure the sensitivity to the chimeric Ply187AN-KSH3b after non-selective growth.” left out

B1: Ply187AN-KSH3b: staphylococcal peptidoglycan hydrolase fusion protein: endopeptidase domain of prophage endolysin Ply187 plus SH3b cell wall-binding domain of phage K endolysin LysK (SEQ ID NO:1) (protein)
chain: MALPKTGKPTAKQVVDWAINLIGSGVDVDGYYGRQCWDLPNYIFNRYWNFKTPGNARDMAWYRYPEGFKVFRNTSDFVPKPGDIAVWTGGNYNWNTWGHTGIVVGPSTKSYFYSVDQNWNNSNSYVGSPAAKIKHSYFGVTHFVRPAYKAEPKPTPPLESTPATRPVTGSWKKNQYGTWYKPENATFVNGNQPIVTRIGSPFLNAPVGGNLPAGATIVYDEVCIQAGHIWIGYNAYNGNRVYCPVRTCQGVPPNQIPGVAWGVFKVEHHHHHH
modifications: Chemically Synthesized Fusion Protein
Usually MIC stands for the least concentration at which growth counts as inhibited. Low readings indicate a more susceptible organism, high ones a less susceptible organism. In the case of B1, the “killing activity in presence of vitreous humor (viable count)” value in the data set with S. aureus is “does not adversely affect the killing activity”. For the same molecule, the “antimicrobial effectiveness relative to Ply187, Ply187AN and LysK” value with staphylococci is given as “more effective antimicrobial than the full-length Ply187 or the truncated Ply187 (Ply187AN)”. The “reduction in the turbidity of suspension culture” value in data set [1] was “time-dependent reduction in the turbidity”. For the same molecule, the minimum inhibitory concentration (MIC) in data set [2] was 4.16 ± 1.04 µg/mL; in [3] it was 4.16 ± 1.04 µg/mL; against S. aureus RN6390 (MSSA), 4.16 ± 1.04 µg/mL; in data set [4] it was 8.33 ± 2.08 µg/mL; in data set [5], 4.16 ± 1.04 µg/mL. In addition, the “inflammatory response in the eye” value in data set [6] is on record as “does not evoke an inflammatory response”. Also, the “fold change in resistance” value with S. aureus strain RN6390 is recorded as “failed to develop any resistance”.

These data come from patent US20150335719A1, “Intravitreal Injection of a Chimeric Phage Endolysin Ply187; Protection from Staphylococcus aureus Endophthalmitis” (priority 2014, published 2015).
